From the RNAGym collection of RNA variant scans (doi:10.1093/nar/gkz1192)

B1: CPEB3 Ribozyme (parent)
chain: UAACAGGGGGCCACAGCAGAAGCGUUCACGUCGCAGCCCCUGUCAGAUUCUGGUGAAUCUGCGAAUUCUGCUGUAUAUCUC

Variants of: B1
Test: self-cleavage, relative activity (ratio to wild type); higher = more cleavage; in vitro, sequencing
Procedure, shortened: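 Libraries of CPEB3 self-cleaving ribozyme mutants came from rounds of error-prone PCR and carried barcodes, which DNA sequencing matched to variants. In vitro transcription used T7 RNA polymerase at 37°C for 5 hours, with a further 15 min in DNase I before EDTA stopped the reaction; the ribozymes cleaved during both steps. The RNA was reverse transcribed with template switching and sequenced on Illumina. Relative activity is the cleaved/total read fraction of a variant divided by that of the unmutated ribozyme, averaged over three batches with at least 5 reads.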

Variant	self-cleavage
A15G C29G	0.16
A15C U78A	1.05
A15C U78C	0.87
A15U U48C	0.33
A15U U48G	0.35
A15U U48A	0.17
A15U U25A	0.2
A15U U25C	0.25
A15U U25G	0.46
A15G G53A	1.02
A15G G53C	1.05
A15G G53U	1.02
A15C U26C	0.36
A15U U54A	0.8
A15U U54C	0.77
A15C U51A	1.06
A15C U51C	0.68
A15U U41C	0.92
A15U U41G	0.26
A15U U41A	0.17
A15U A65G	0.29
A15U A65U	0.37
A15C U76A	1.19
A15G A65U	0.23

Variant	self-cleavage
A15G A65G	0.39
A15G U26C	0.41
A15G U26G	0.55
A15G U26A	0.71
A15G U74A	1.14
A15G U74C	1.21
A15G U74G	1.14
A15C C29U	0.22
A15C C59U	0.85
A15G U69A	0.35
A15G U69C	0.3
A15G U69G	0.32
A15U G42A	0.61
A15U A77C	0.41
A15U A77U	0.71
A15U A77G	0.87
A15U G70A	0.32
A15U G70C	0.17
A15C U80A	1.22
A15U C50G	0.26
A15G G19C	0.49
A15G G19U	0.28
A15G G36U	0.3
A15G G36A	0.34

Variant	self-cleavage
A15G C37A	0.11
A15G C37U	0.81
A15G C37G	0.69
A15U U43C	0.41
A15U U43A	0.88
A15U U43G	0.25
A15C G53C	0.95
A15G A57U	0.56
A15G A57G	0.63
A15G U80G	0.86
A15G U80C	1.06
A15G U80A	1.07
A15U A18G	0.29
A15U A18U	0.25
A15U A18C	0.35
A15G A20C	0.18
A15G A20G	0.47
A15G A20U	0.24
A15C U69C	0.26
A15G C23A	0.19
A15G C23U	0.29
A15G C23G	0.42
A15U C68U	0.26
A15G G33A	0.24

Variant	self-cleavage
A15G G33C	0.29
A15G G33U	0.12
A15U U31C	0.35
A15U U31G	0.39
A15U U31A	0.45
A15U C59G	0.1
A15C U43C	0.46
A15C U43G	0.25
A15U G30C	0.15
A15U G30U	0.15
A15U	0.76
A15G	0.92
A15G G63A	0.79
A15G G63C	0.86
A15C U58A	0.41
A15C U58C	0.21
A15C U58G	0.29
A15G C81A	1.16
A15G C81U	1.02
A15G C81G	1.09
A15G G24A	0.39
A15G G24U	0.12
A15G G55A	0.66
A15G G55U	0.65

Variant	self-cleavage
A15U C79U	1.14
A15U C79G	1.08
A15U C79A	1.03
A15U A28C	0.33
A15U A28U	0.38
A15U A28G	0.22
A15G A77C	1.1
A15G A77U	0.97
A15G A77G	1.15
A15G C39A	0.32
A15G C39U	0.98
A15G C39G	0.29
A15G U72G	0.46
A15G U72A	0.48
A15G U72C	1.16
A15U C39A	0.24
A15U C39U	0.65
A15U G33U	0.52
A15U G33A	0.17
A15U C37U	0.29
A15G U58C	0.44
A15G U58A	0.32
A15G C27A	0.21
A15G C27U	0.27

Variant	self-cleavage
A15U A64G	0.54
A15U A64U	0.37
A15G C40U	0.67
A15G C40G	0.28
A15G C40A	0.41
A15C U49A	0.7
A15C U49C	0.35
A15G U31C	0.36
A15G U31A	0.63
A15C C37U	0.58
A15C U66G	0.45
A15C U66C	0.29
A15C G63A	0.99
A15C U54C	0.98
A15C G73A	1.26
A15G A35U	0.53
A15G A35C	0.45
A15G A35G	0.68
A15G A45C	0.31
A15G A45U	0.44
A15G A45G	0.66
A15G C79U	1.04
A15G C79A	1.19
A15G C79G	1.26

Variant	self-cleavage
A15G C71U	0.28
A15U U49C	0.15
A15U U49A	0.64
A15U U49G	0.36
A15G U67A	0.35
A15G U67G	0.4
A15G U67C	0.24
A15C A65G	0.46
A15C A65U	0.17
A15G C50A	0.4
A15G C50G	0.57
A15G C50U	0.33
A15G G61A	0.34
A15G G16A	0.33
A15G G16U	0.25
A15C U72A	0.8
A15C U72C	1.1
A15C G24A	0.18
A15G A28U	0.39
A15G A28C	0.53
A15G A28G	0.49
A15U A56G	0.46
A15U A56U	0.47
